Reference: a protein production outcome set (Wang et al. 2014)

Test: label from the status in PepcDB records

| Sequence | protein production |
| --- | --- |
| MAKKQLSLTRLSFPIFWDLLSKYLTVIINTAMVSHYSNFLVGAMGAGNQILDLFITIFSFLSVGCSVLIAQAIGAKDHVLARKVIHQSLFLNALLGFVCGVLILWHGEYLLYLLKIPQELLKDSEIYLHMLAICLFFDAIGIVLAAIVRVYNMAYWVMFIGFLMDIVVICGNYYVLHYTKSELFGIGLSNIFARIVAIVALFAILFYKLKIHLKIKEMIKLEKEVLKKVLNIGGFSAGENLLWIVQYTIAFAFVASLGEASLSVQTIYFQISMLIMLIGQATSIANEIIVGKLIGARYENIAYKHAWRALYFSVIASALVALLNYLCQDFTMQILGLKEELKNLMIPLFALSIFLEISRTFNIVMVNSLRASGDAKFPFFSGLVFMMGVSLPVGYVLCFHFNLGILGVWIGFCADEFLRGMVNSYRWKSKKWQGKALV | failed |
| MGHHHHHHSHMPVTEKDLAEDAPWKKIQQNTFTRWCNEHLKCVNKRIGNLQTDLSDGLRLIALLEVLSQKRMYRKYHQRPTFRQMQLENVSVALEFLDRESIKLVSIDSKAIVDGNLKLILGLVWTLILHYSISMPVWEDEGDDDAKKQTPKQRLLGWIQNKIPYLPITNFNQNWQDGKALGALVDSCAPGLCPDWESWDPQKPVDNAREAMQQADDWLGVPQVITPEEIIHPDVDEHSVMTYLSQFPKAKLKPGAPLKPKL | not failed |
| MSGDAATDADAGRAGPGGVFGVGFRSLLRREILRFVRRPRNTFAPPAITNVLYFAVFGVILGQRIDDIAGFDYIVFLLPGLVVLGAISNAFENASFSIFHGRWNEYIHETLTAPLSYSSMVLAYVFAAALRGIIVGLIIVAVGLVFTTVPVNEPLYLAAFMVVVPLLFASLGVIGGLVAEDFDDLTVMNQFILRPLVFFGAVFYSLEILPPLYRTLSLLNPMVYMVNGVRYGFLGYQEVDPLASLAVLSGLTAAVIVLDIYLFKRGYGLID | failed |
| YTPMSDLGQQGLFDITRTLLQQPDLASLSEALSQLVKRSALADSAGIVLWQAQSQRAQYYATRENGRPVEYEDETVLAHGPVRRILSRPDALHCNFHEFTETWPQLAASGLYPEFGHCCLLPLAAEGRIFGGCEFIRQEDR | failed |
| MFLGAAMAQVSLCMIVRDEAELLPRCLASVKDQVDELIVLDTGSRDRTPAIATEAGAKLLHTDWADDFSAARNQAIAAATGDWILVLDADEELILEAWTELRSQLDQPEALAFTVLREETQAGQVPYSRLSRLFRNRPDIRFQRPYHELVDDSLLALQQQEPNWRITAWPTPVIRHYGYGRDRLQQRGTAERMRQSLETWLADHPEDAYLCSKLGGLLVQEGDLKAAQRWLKQGLKQGRPEPAVRYELLYHLALLERRQGDLDAAIDRYQAALQEPVDAIHKLGAWVNLSHLYRDRGQLGLAYDAARQAVAAAPQATVALTALGLAARAIGNYPEAIAAYQQALQLDPNDPSLYQNLGAVLFQVGQLEASYAAFRQAIAGYEQQGSPEAQRLELRLQAMGIRL | failed |
| MTFPLALIAKNTPANSMIMTKLPSVKVKTEGYNPSVNVNELFAYVDLSGSEPGEHDYEVKVDPIPNIKIVEISPRVVTLQLEHHHHHH | not failed |
| MAPSSSTFKQVADDWLKQYANDVKVSSVRAREKAIQHAIERFNTKPIQTIKKHDYQRFVDDISAQYSKNYVDSIVASTNMIFKYAYDTRLIKAMPSEGIKRPKKKLEHHHHHH | not failed |
| MTQTTVPVIFDLDGTLVDPAGGITGGISAALREMDLPVPEQAVLNSMVGPKLSDSLLHLADVPGELVDETIERYRRHYKETGIGQSKLYPGVFDLLEYFAETGRPVAVATQKPQSIARLVLEHHKIADFFVSIRGAADDESLKANTASGKVEIVGAALKDLHSQPAVMVGDRHQDVAGALANGLDCIGVSWGFAPDGELEEAGAVAVVSTALELRSKIEELDAVRAAALSEVQNDGSL | failed |
| DPQILTTPGRDIAELRRIAGRPLSVAIDFEGGRVLRHRGILGDFPSPQVMAQTMTPEQVRGMAYDMGRSLFAHGINVNFAPVVDIEAGLEVVGDRAFSPDPLIDATYATAFAQGMADAGVRPVLKHFPGHGRASGDSHTAQVHTPPLAELEKLDLIPYGRVP | failed |
| MTNVLWLQGGACSGNTMSFLNAEEPTVCDLIADFGIKVLWHPSLGLELGDNVQTLLWDCILGKIPLDILVFEGTVVNAPNGTGEWNRFADRPMKDWLNDLAQAASFVVAVGDCATWGGIPAMEPNPSESQGLQFLKRKEGGFLGKDFRAKSGLPVINIPGCPSHPDWITQILVAIATGRIGDIALDELNRPQTFFNTFTQTGCTRNVHFAYKATTAEFGQRKGCLFYDLGCRGPMTHSSCNRILWNRVSSKTRAGMPCLGCTEPEFPFFDLKPGTVFKTQTIMGVPKELPPGVSNKNYAVLTMVAKDTAPKWAEEDFFTV | failed |
| MSKRMRPSWYRDSPPKQLPYAFVPEEDDDVVILPQVDNSALLGRLQLSLVGRMFHQGGRSTEALLSFLPNIWDVEGRVRGVSLGDSRFQFFFESETDLQKVLNKRPCHFSKWSFALERWKSHIGISFPDTMTFWIKTEGIPTEFWEEEVLRNFGASIGAVRRVDSSKGRLQISVKADVPFRFNKNAQLPNGEVVKVKLFYEKLF | failed |
| MLNKVNLADIRSFVLIAQLGNFTKAAEALSVSRSHVSRQISGLEAQMGVTLLNRTTRTLRLTHAGERFYHDCEKALRDIDQALIAAVDDTQEIRGVIRVNCVGGYIGEDIIAKYVCEFMQQYPNVSIDLDFSSPRIDLIEDQFDVAFRMGELDDAGFVARKLMTVDMVTLASPSYVQQYGMPIHPKELAEHRTLTGSVARWSYRKADNPNDHTDVVVKGNLRCKNGRALVMGALHGNGIIRVPLSYCAEEVELGQLIKVMPNWEIPSVPFSAIFHRDRYQPKRLRTFIDFIKQKFEDS | failed |
| MKRLALALKQRKVASWKLEEVKELTELIKNSNTILIGNLEGFPADKLHEIRKKLRGKATIKVTKNTLFKIAAKNAGIDIEKLEQYLTGPNVFIFTKDNPFITNMFFENYKLRRYAMPGDKAEEEVVIPAGDTGMPAGPILSVFGKLKVQTKVQDGKVHVVKDTVVAKPGDVIPAEALPILQKLGIMPVYVKLKIKVAYHEGLVIPAESLKLDLEGYRSNITEAYRNAFTLAVEIAYPTPDVLKFTISKVFKNAIALASEIGYITPESAQAVISKAVAKAYALATAIGGKVDLGVQLPTVQQSQSQQPAAEEKKEEKKEEEKKGPSEEEIASGLASLFG | failed |
| STGSATTTPIDSLDDAYITPVQIGTPAQTLNLDFDTGSSDLWVFSSETTASEVDGQTIYTPSKSTTAKLLSGATWSISYGDGSSSSGDVYTDTVSVGGLTVTGQAVESAKKVSSSFTEDSTIDGLLGLAFSTLNTVSPTQQKTFFDNAKASLDSPVFTADLGYHAPGTYNFGFIDTTAYTGSITYTAVSTKQGFWEWTSTGYAVGSGTFKSTSIDGIADTGTTLLYLPATVVSAYWAQVSGAKSSSSVGGYVFPCSATLPSFTFGVGSARIVIPGDYIDFGPISTGSSSCFGGIQSSAGIGINIFGDVALKAAFVVFNGATTPTLGFASK | not failed |
| MSNIITYLKNNSNLTFDELALNDVDILCLNEFGYISFEKLINTTEMKSVLVCELYHEYLQTMAKSYSFMFTSQRHDLCQLMMTSKRFKNLTLSYYRAEISLEFEKQFAAMVFTIPNINYHQVVFRGTDANLIGWKEDFKLTYMREISAHRSAIKYLNTILPYFDKVVLSGHSKGGNLALYAAMFTKPDLKAKIDLIWLIDSPGLQKTLLPTTEYKTTKQKCIRLLPEESIVGMMLYSDIEPLIISSNARGILQHDVTTWEIQEPAILKTGTGLSLKSICFEKTFQQWMAELKSQERKLFFDLLFDSFLSSGVSSLDDFNLASRAKMMKAFHSFRELDDDKKRLFNKSLKLLVTIFWGAYHDNSRETK | failed |
| MMFEGIRIARQMGHNIAIVSPRVDVIIEISHRIKDAFIDEHIDVLHQSSRQQYNGHFVIATIHQLLRFKQHFDTVFVDEVDAFPLSMDPQLSNAIQLASKSNHSHIFMTATPPRHFLKQFPPEKIIKLPARFHRSPLPIPKFKYFKLKSTRKQNLLLNIFRYQINQQRFTLVFINNIEIMNKMYQQYKMDIPDLICVHSEDDLRFEKIEALRRGQHKIVFTTTILERGFTMTHLDVVVVDAGSFQQEALIQIAGRVGRKQQSPSGLVLFLHEGVTLSMILAKRNIISMNRLAIKRGWIDA | failed |
| MITSIARQSIILKCLRQKSVLVSNYELYYTAGLAKKCFGIAVDADMEPKQLLEELQKHIDKVSPADEQEKYLIHLLGNYEPDDTHDEQTVELFHMGETEEHIWQVSIT | not failed |
| MPGPSRKAAAWLPILVILVAMTSIQSGASLAKSLFPVVGAPGVTALRLALGTLILVVVFKPWRLRFSPAQRVPLLLYGLALGAMNYLFYLSLQRIPLGVAVALEFTGPLAVALFGSRRPLDFVWVALAILGLWYLLPLGQNVAQVDLTGALFALGAGACWAVYILTGQRAGEEHGPATVAMGSLIASLVFVPLGMAQATDTLWQWSLLPLGLGIAILSTALPYSLEMMALTRLPTRTFGTLMSLEPALAALSGMIFLGETLKLSQTLALGAIIIASMGATLTMQRQSKVEQVDIN | failed |
| MMEFNVAENGGGSYRPLAILRWVMVVIFVSFGMQKFTLQSAQGIAQFITNSPFISWLSIFGLRGEAYVLGVAEFAIAALLAAGSFSPVLSAVGSFMGVVTFAITWSFFFTTPGVVTWSLSSDPMAWNLTGEFLFKDIVLLCVCAVLFLASLPRSAIRLRTG | failed |
| MILTSTEGQEGLPRYFPQVMKMLARMQAGRLDIALPDGRVFRSEGPEPGPVARVDIHDTDVFARLIREGELGFSDAYLEQDWSTPDLRAFMDLVHQGEETVYDGFTGQFLARAYERLRFWLQRNHRKQAKKNISYHYDLGNDFYALWLDETMTYSSALFETGQESLEKAQEAKYASLLDEMGAQPGDHILEIGCGWGGFAEYAARQRGMRVTGLTISQEQFKFARERIEKAGLSDQVHFKLQDYRDETGSYDGIASIEMFEAVGEKYWPVYFDTVRARLKPGKRATLQIITVADRRWEIYRNGVDFIQKYIFPGGMLPAPGILREQVARAGLEFVQSREFGKSYDLTLRRWYETFNDKWDQVAELGFDDRFRRMWNFYLTSCGAAFDTGTCDVTQMTVARPNHS | failed |
| MSELIAQLLVYIKGIWKYRWASVATAWTVAIAGWFFVYQMPDNYQASARIYVDTQSILRPLMAGMTVSPNPDQQITIMSRTLISRPNVERIIRMVDLDIKITDDSAREKLVTTLMKDIKLSTTGSDNIFMISYDNKDPRLAKDIVQSLLTIFVEGGLEGKKQDSASALRFIDQQIAAYEEKLVAAEAALTAFKQKNIGFLPGQGGDYYSQLVSAAEELEKARLTLLEAEQARDAVKKQITGDEPVLLFEVGEVSPQSIVNPEIDSRIQALNTNLDNLMLNFTDQHPDVVATKRLIAQLEERKVEEAKLAGTVNNRGRNYDPMMQQLNIALAESEAQVASMKARVAEYEARFERLKSMSNTVPAVEVEMQQLNRDYNVNKANYEKLLERRASAEISGELTSTSGLMSFRIVDPPTVPEAPSGPDRKKFFTLVLIGALAGGIGFAFIISQIRPTFHSQSTLRELTGLPILGTIPMVWTEQQKLKDKRKIYAFGISLLMLMACYVVLMIYVKPHGMTAA | failed |
| MDPEIQPPPGKAEIKAKIWKLKTAPKIKHFLWKLLSGALATGDNLKRRHIRNHPQCHRCCQEDETSQHLFFDCFYAQQVWRASGIPHQELRTTGITMETKMELLLSSCLANRQPQLFNLAIWILWRLWKSRNQLVFQQKSISWQNTLQRARNDVQEWEDTNTYVQSLNQQVHSSRHQQPTMARTKWQRPPSTWIKYNYDGAFNHQTRNAKAGWLMRDENGVYMGSGQAIGSTTSDSLESEFQALIIAMQHAWSQGYRKVIFEGDSKQVEELMNNEKLNFGRFNWIREGRFWQKRFEEAVFKWVPRTNNQPADILAKHHLQPNQSFKFHYYVPAFITSTLYYDH | failed |
| MVNRCFFFNRRICFMELFLLRHGKPDIRRSMAIRSVDMYSWIGEYDAAGILDSPDASTVAASEGKFIVSSPMPRALESVAALGLEPDIIIDELHEAPLPVFNIPLLKLTPLVWAALFRIFWMAGGSGGVETFSSVKIRAKLVSCELDKMAETHGSVLSVGHGFMNALVARELQKAGWKRQKVGPSGYWSGIKLVR | failed |
